Measured values: PMC7026398, “Structural and functional insight into the effect of AFF4 dimerization on activation of HIV-1 proviral transcription” (Cell Discovery, 2020)

Biological target: Flag-AFF1 F1063A+Y1145A+V1146A+V1152A, full length (UniProt P51825)

B1: Flag-AFF1 F1063A+Y1145A+V1146A+V1152A, full length (natural protein)
chain: MAAQSSLYNDDRNLLRIREKERRNQEAHQEKEAFPEKIPLFGEPYKTAKGDELSSRIQNMLGNYEEVKEFLSTKSHTHRLDASENRLGKPKYPLIPDKGSSIPSSSFHTSVHHQSIHTPASGPLSVGNISHNPKMAQPRTEPMPSLHAKSCGPPDSQHLTQDRLGQEGFGSSHHKKGDRRADGDHCASVTDSAPERELSPLISLPSPVPPLSPIHSNQQTLPRTQGSSKVHGSSNNSKGYCPAKSPKDLAVKVHDKETPQDSLVAPAQPPSQTFPPPSLPSKSVAMQQKPTAYVRPMDGQDQAPSESPELKPLPEDYRQQTFEKTDLKVPAKAKLTKLKMPSQSVEQTYSNEVHCVEEILKEMTHSWPPPLTAIHTPSTAEPSKFPFPTKDSQHVSSVTQNQKQYDTSSKTHSNSQQGTSSMLEDDLQLSDSEDSDSEQTPEKPPSSSAPPSAPQSLPEPVASAHSSSAESESTSDSDSSSDSESESSSSDSEENEPLETPAPEPEPPTTNKWQLDNWLTKVSQPAAPPEGPRSTEPPRRHPESKGSSDSATSQEHSESKDPPPKSSSKAPRAPPEAPHPGKRSCQKSPAQQEPPQRQTVGTKQPKKPVKASARAGSRTSLQGEREPGLLPYGSRDQTSKDKPKVKTKGRPRAAASNEPKPAVPPSSEKKKHKSSLPAPSKALSGPEPAKDNVEDRTPEHFALVPLTESQGPPHSGSGSRTSGCRQAVVVQEDSRKDRLPLPLRDTKLLSPLRDTPPPQSLMVKITLDLLSRIPQPPGKGSRQRKAEDKQPPAGKKHSSEKRSSDSSSKLAKKRKGEAERDCDNKKIRLEKEIKSQSSSSSSSHKESSKTKPSRPSSQSSKKEMLPPPPVSSSSQKPAKPALKRSRREADTCGQDPPKSASSTKSNHKDSSIPKQRRVEGKGSRSSSEHKGSSGDTANPFPVPSLPNGNSKPGKPQVKFDKQQADLHMREAKKMKQKAELMTDRVGKAFKYLEAVLSFIECGIATESESQSSKSAYSVYSETVDLIKFIMSLKSFSDATAPTQEKIFAVLCMRCQSILNMAMARCKKDIAIKYSRTLNKHFESSSKVAQAPSPCIASTGTPSPLSPMPSPASSVGSQSSAGSVGSSGVAATISTPVTIQNMTSSAATITSHALTAFDLWEQAEALTRKNKEFFARLSTNVCTLALNSSLVDLVHYTRQGFQQLQELTKTP
B1 was tested, and the HIV-LTR-luciferase reporter in NH1 cells, overexpressed Flag-AFF1 mutant against wild-type AFF1 (fold less than wild-type AFF1) was 1.
